Assay results taken from publication doi:10.1101/2025.08.25.672096 (bioRxiv, 2025).

T1: GST::KIF14(901-1648) (UniProt Q15058 901-1648)
T1 sequence (looked up): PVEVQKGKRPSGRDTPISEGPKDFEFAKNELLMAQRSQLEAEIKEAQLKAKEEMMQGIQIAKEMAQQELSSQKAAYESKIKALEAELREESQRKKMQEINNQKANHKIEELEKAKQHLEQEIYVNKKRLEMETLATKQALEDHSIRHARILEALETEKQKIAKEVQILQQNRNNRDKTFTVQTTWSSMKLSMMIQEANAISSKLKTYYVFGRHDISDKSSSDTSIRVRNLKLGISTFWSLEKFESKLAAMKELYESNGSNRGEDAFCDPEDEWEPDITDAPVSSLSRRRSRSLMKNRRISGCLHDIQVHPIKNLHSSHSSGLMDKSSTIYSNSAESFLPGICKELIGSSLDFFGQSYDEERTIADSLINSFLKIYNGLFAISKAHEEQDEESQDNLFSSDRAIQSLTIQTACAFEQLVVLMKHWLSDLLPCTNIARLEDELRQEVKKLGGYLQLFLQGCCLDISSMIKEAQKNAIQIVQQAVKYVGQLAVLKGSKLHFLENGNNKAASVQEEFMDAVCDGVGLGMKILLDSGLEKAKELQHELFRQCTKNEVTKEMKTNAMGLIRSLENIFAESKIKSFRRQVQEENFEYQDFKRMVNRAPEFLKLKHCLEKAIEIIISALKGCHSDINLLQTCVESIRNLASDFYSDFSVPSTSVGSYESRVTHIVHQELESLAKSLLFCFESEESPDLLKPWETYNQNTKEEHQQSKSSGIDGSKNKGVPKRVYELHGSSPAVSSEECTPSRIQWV

B1: MBP::CIT-K(420-585) (domain or fragment, human, UniProt O14578-4 420-585, looked up)
chain: SYSKALGILGRSESVVSGLDSPAKTSSMEKKLLIKSKELQDSQDKCHKMEQEMTRLHRRVSEVEAVLSQKEVELKASETQRSLLEQDLATYITECSSLKRSLEQARMEVSQEDDKALQLLHDIREQSRKLQEIKEQEYQAQVEEMRLMMNQLEEDLVSARRRSDLY
B2: MBP::CIT-K(420-585) phosphorylated in vitro by CDK1-cyclin B (pS440) (domain or fragment, human, UniProt O14578-4 420-585, looked up)
chain: B1 chain
modifications: phosphoserine at 440 (detected with the CIT-K pS440 antibody)

Target: T1, GST::KIF14(901-1648)
Test: pull-down

Binder	binding result
B1	binds
B2	binds
